Consider one molecule from paper PMC5038981 (DNA repair, 2015).

The target of the experiment is T1, GST-tagged Rad27 (S. cerevisiae, UniProt P26793 1-382).
T1 sequence (looked up): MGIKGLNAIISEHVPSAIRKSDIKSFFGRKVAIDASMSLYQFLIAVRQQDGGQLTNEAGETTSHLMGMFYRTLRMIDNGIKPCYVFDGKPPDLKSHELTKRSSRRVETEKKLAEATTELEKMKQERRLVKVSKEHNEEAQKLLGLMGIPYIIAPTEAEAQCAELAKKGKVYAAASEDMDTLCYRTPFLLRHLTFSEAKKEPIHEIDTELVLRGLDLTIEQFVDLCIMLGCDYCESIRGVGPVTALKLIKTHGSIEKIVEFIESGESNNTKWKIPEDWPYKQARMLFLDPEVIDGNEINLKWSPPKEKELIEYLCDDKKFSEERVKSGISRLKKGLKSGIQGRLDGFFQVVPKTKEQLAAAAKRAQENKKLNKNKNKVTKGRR
The experiment in a line: pull-down.

B1: his-tagged Nej1 C-terminal fragment (residues 129-343) (domain or fragment, S. cerevisiae, UniProt Q06148 129-342, looked up)
chain: MFYMILQSLCMLLLKLVNLSTQYHYVQRDILNEKQKCLDFLLISLRDLDGGSKVISQWAPENSKNYESLQQCTDDDIIKKLLHKGKFQHQEFLADSLKTLLSLRNKFQDVSRFEESGELNKKERVRFPAVNHFYNDDFELQADPTNEARPNSRGKIKPKTDFKPKSRESSTSSQLRLENFSESEATPEKTKSSSSLVEEYPQKKRKFGKVRIKN
In the case of B1, the binding result was “binds”.
